Each block holds one substance with its values, some of them ahead of it.
Columns and labels:
[1] = target: D3H44 Fab heavy chain L124E_L143E_K145M, C-terminal ABD2-His6 tag; assay: LCCA co-expression, SPR tag read-out; DNA 1:3 norm. to 1:1; competing light chain m8
[2] = target: D3H44 Fab heavy chain L124E_L143E_K145T, C-terminal ABD2-His6 tag; assay: as above
[3] = target: D3H44 Fab heavy chain L124R_S186R, C-terminal ABD2-His6 tag; assay: as above
[4] = target: D3H44 Fab heavy chain L124E_L143E_K145M, C-terminal ABD2-His6 tag; assay: LCCA (co-expression, SPR read-out of light chain tags), L1:L2 DNA 1:3 normalised to 1:1; competitor m10
[5] = target: D3H44 Fab heavy chain L124E_L143E_K145T, C-terminal ABD2-His6 tag; assay: as above
[6] = target: D3H44 Fab heavy chain L124R_S186K, C-terminal ABD2-His6 tag; assay: as above
[7] = target: D3H44 Fab heavy chain L124E_L143D_K145M, C-terminal ABD2-His6 tag; assay: LCCA (co-expression, SPR read-out of light chain tags), L1:L2 DNA 1:3 normalised to 1:1; competitor m11
[8] = target: D3H44 Fab heavy chain L124E_L143D_K145T, C-terminal ABD2-His6 tag; assay: as above
[9] = target: D3H44 Fab heavy chain L124R_S186R, C-terminal ABD2-His6 tag; assay: as above
[10] = target: D3H44 Fab heavy chain L124E_L143D_K145M, C-terminal ABD2-His6 tag; assay: LCCA set 9176 (co-expression; SPR read-out of light-chain tags; L1:L2 DNA 1:3, normalized to 1:1); competing light chain m10
[11] = target: D3H44 Fab heavy chain L124E_L143D_K145M, C-terminal ABD2-His6 tag; assay: LCCA set 9196 (co-expression; SPR read-out of light-chain tags; L1:L2 DNA 1:3, normalized to 1:1); competing light chain m13
[12] = target: D3H44 Fab heavy chain L124E_L143D_K145T, C-terminal ABD2-His6 tag; assay: LCCA set 9214 (co-expression; SPR read-out of light-chain tags; L1:L2 DNA 1:3, normalized to 1:1); competing light chain m10
[13] = target: D3H44 Fab heavy chain L124E_L143E_K145M, C-terminal ABD2-His6 tag; assay: LCCA set 9257 (co-expression; SPR read-out of light-chain tags; L1:L2 DNA 1:3, normalized to 1:1); competing light chain m10
[14] = target: D3H44 Fab heavy chain L124R_S186K, C-terminal ABD2-His6 tag; assay: LCCA set 9451 (co-expression; SPR read-out of light-chain tags; L1:L2 DNA 1:3, normalized to 1:1); competing light chain m10
[15] = target: D3H44 Fab heavy chain L124R_S186K, C-terminal ABD2-His6 tag; assay: LCCA set 9461 (co-expression; SPR read-out of light-chain tags; L1:L2 DNA 1:3, normalized to 1:1); competing light chain m13
[16] = target: D3H44 Fab heavy chain L124R_S186R, C-terminal ABD2-His6 tag; assay: LCCA set 9505 (co-expression; SPR read-out of light-chain tags; L1:L2 DNA 1:3, normalized to 1:1); competing light chain m10
[17] = target: D3H44 Fab heavy chain L124R_S186K, C-terminal ABD2-His6 tag; assay: LCCA co-expression, SPR tag read-out; DNA 1:3 norm. to 1:1; competing light chain m8
[18] = target: D3H44 Fab heavy chain L124R_S186R, C-terminal ABD2-His6 tag; assay: LCCA (co-expression, SPR read-out of light chain tags), L1:L2 DNA 1:3 normalised to 1:1; competitor m10
[19] = target: D3H44 Fab heavy chain L124R_S186K, C-terminal ABD2-His6 tag; assay: LCCA (co-expression, SPR read-out of light chain tags), L1:L2 DNA 1:3 normalised to 1:1; competitor m11
[20] = target: D3H44 Fab heavy chain L124E_L143D_K145M, C-terminal ABD2-His6 tag; assay: LCCA set 9199 (co-expression; SPR read-out of light-chain tags; L1:L2 DNA 1:3, normalized to 1:1); competing light chain m13
[21] = target: D3H44 Fab heavy chain L124E_L143D_K145T, C-terminal ABD2-His6 tag; assay: LCCA set 9217 (co-expression; SPR read-out of light-chain tags; L1:L2 DNA 1:3, normalized to 1:1); competing light chain m10
[22] = target: D3H44 Fab heavy chain L124E_L143E_K145M, C-terminal ABD2-His6 tag; assay: LCCA set 9253 (co-expression; SPR read-out of light-chain tags; L1:L2 DNA 1:3, normalized to 1:1); competing light chain m11
[23] = target: D3H44 Fab heavy chain L124R_S186K, C-terminal ABD2-His6 tag; assay: LCCA set 9473 (co-expression; SPR read-out of light-chain tags; L1:L2 DNA 1:3, normalized to 1:1); competing light chain m10
[24] = target: D3H44 Fab heavy chain L124R_S186K, C-terminal ABD2-His6 tag; assay: LCCA set 9484 (co-expression; SPR read-out of light-chain tags; L1:L2 DNA 1:3, normalized to 1:1); competing light chain m13
[25] = target: D3H44 Fab heavy chain L124R_S186R, C-terminal ABD2-His6 tag; assay: LCCA set 9526 (co-expression; SPR read-out of light-chain tags; L1:L2 DNA 1:3, normalized to 1:1); competing light chain m11

H1L1:H1L2 normalized median ratio (% (ratio normalized to 100)) [1]: 5
H1L1:H1L2 normalized median ratio (% (ratio normalized to 100)) [2]: 4
H2L2:H2L1 normalized median ratio (% (ratio normalized to 100)) [3]: 88
H1L1:H1L2 normalized median ratio [4]: 5%
H1L1:H1L2 normalized median ratio [5]: 4%
H2L2:H2L1 normalized median ratio [6]: 82%
H1L1:H1L2 normalized median ratio [7]: 12%
H1L1:H1L2 normalized median ratio [8]: 14%
H2L2:H2L1 normalized median ratio [9]: 94%
H1L1:H1L2 normalized median ratio (H1L2 part) [10]: 17%
H1L1:H1L2 normalized median ratio (H1L2 part) [11]: 12%
H1L1:H1L2 normalized median ratio (H1L2 part) [12]: 15%
H1L1:H1L2 normalized median ratio (H1L2 part) [13]: 16%
H2L2:H2L1 normalized median ratio (H2L2 part) [14]: 93%
H2L2:H2L1 normalized median ratio (H2L2 part) [15]: 89%
H2L2:H2L1 normalized median ratio (H2L2 part) [16]: 94%
Substance: D3H44 light chain Q124E_V133G_S176D_T178D_T180E, N-terminal HA or FLAG tag

H1L1:H1L2 normalized median ratio (% (ratio normalized to 100)) [1]: 5
H1L1:H1L2 normalized median ratio (% (ratio normalized to 100)) [2]: 4
H2L2:H2L1 normalized median ratio (% (ratio normalized to 100)) [17]: 90
H1L1:H1L2 normalized median ratio [5]: 4%
H2L2:H2L1 normalized median ratio [18]: 80%
H1L1:H1L2 normalized median ratio [8]: 11%
H2L2:H2L1 normalized median ratio [19]: 92%
H1L1:H1L2 normalized median ratio (H1L2 part) [20]: 13%
H1L1:H1L2 normalized median ratio (H1L2 part) [21]: 18%
H1L1:H1L2 normalized median ratio (H1L2 part) [22]: 5%
H2L2:H2L1 normalized median ratio (H2L2 part) [23]: 93%
H2L2:H2L1 normalized median ratio (H2L2 part) [24]: 92%
H2L2:H2L1 normalized median ratio (H2L2 part) [25]: 80%
Substance: D3H44 light chain V133G_S176D_T178D_T180E, N-terminal HA or FLAG tag

From patent US11306156
